In PMC5472786:
Each block holds one substance with its values, some of them ahead of it.

How the values were obtained:
[1] = tested on: INO80 complex (Ino80-FLAG) (Saccharomyces cerevisiae S288C); experiment: EMSA; details: saturating INO80, 30 C, EMSA: 10 mM Na-HEPES pH 7.8, 4 mM MgCl2, 60 mM NaCl, 0.2 mM EGTA, 0.04 mM EDTA, 8% glycerol, 0.1 ug/uL BSA, 30 min, footprinting and crosslinking at 30 C
[2] = tested on: Ino80 (catalytic subunit within INO80 complex) (Saccharomyces cerevisiae S288C); experiment: site-specific DNA photocrosslinking; details: 10 A tether, in INO80 complex, AB-dUMP (10 A) or ABG2-dUMP (18.6 A) at nt -58 from dyad, EMSA: 10 mM Na-HEPES pH 7.8, 4 mM MgCl2, 60 mM NaCl, 0.2 mM EGTA, 0.04 mM EDTA, 8% glycerol, 0.1 ug/uL BSA, 30 C, 30 min, footprinting and crosslinking at 30 C
[3] = target: H2A-containing mono-nucleosome (recombinant Xenopus laevis histone octamer on 601 DNA with 70 bp of extranucleosomal DNA) (Xenopus laevis) (UniProt P06897); experiment: native gel or EMSA; 70N0 nucleosomes with photoreactive DNA bound with saturating amounts of INO80 at 30 °C; extent of binding assessed on 4% native polyacrylamide gels

Substance: 70N0 nucleosome, photoreactive dUMP at nt -33/-30
- binding signal (% nucleosomes bound) ([1]; photoreactive dUMP at nt -30 to -33 from dyad): > 90

Substance: 70N0 nucleosome, photoreactive dUMP at nt -58
- binding signal (% nucleosomes bound) ([1]; AB-dUMP (10 A) or ABG2-dUMP (18.6 A) at nt -58 from dyad): > 90
- binding signal (fold crosslinking vs no nucleotide) ([2]; ADP): 4
- binding signal (fold crosslinking vs no nucleotide) ([2]; ATPgS): 4

- percent of nucleosomes bound [3]: > 90%
Substance: INO80 complex (from UniProt P53115 1-1489; P80428 1-489; P40154 1-320)
